Molecular target: hERG (channel tested in the hERG FastPatch assay) (UniProt Q12809 1-1159)
Experiment: cell-based or functional assay

hERG (channel tested in the hERG FastPatch assay), sequence (Q12809 whole entry): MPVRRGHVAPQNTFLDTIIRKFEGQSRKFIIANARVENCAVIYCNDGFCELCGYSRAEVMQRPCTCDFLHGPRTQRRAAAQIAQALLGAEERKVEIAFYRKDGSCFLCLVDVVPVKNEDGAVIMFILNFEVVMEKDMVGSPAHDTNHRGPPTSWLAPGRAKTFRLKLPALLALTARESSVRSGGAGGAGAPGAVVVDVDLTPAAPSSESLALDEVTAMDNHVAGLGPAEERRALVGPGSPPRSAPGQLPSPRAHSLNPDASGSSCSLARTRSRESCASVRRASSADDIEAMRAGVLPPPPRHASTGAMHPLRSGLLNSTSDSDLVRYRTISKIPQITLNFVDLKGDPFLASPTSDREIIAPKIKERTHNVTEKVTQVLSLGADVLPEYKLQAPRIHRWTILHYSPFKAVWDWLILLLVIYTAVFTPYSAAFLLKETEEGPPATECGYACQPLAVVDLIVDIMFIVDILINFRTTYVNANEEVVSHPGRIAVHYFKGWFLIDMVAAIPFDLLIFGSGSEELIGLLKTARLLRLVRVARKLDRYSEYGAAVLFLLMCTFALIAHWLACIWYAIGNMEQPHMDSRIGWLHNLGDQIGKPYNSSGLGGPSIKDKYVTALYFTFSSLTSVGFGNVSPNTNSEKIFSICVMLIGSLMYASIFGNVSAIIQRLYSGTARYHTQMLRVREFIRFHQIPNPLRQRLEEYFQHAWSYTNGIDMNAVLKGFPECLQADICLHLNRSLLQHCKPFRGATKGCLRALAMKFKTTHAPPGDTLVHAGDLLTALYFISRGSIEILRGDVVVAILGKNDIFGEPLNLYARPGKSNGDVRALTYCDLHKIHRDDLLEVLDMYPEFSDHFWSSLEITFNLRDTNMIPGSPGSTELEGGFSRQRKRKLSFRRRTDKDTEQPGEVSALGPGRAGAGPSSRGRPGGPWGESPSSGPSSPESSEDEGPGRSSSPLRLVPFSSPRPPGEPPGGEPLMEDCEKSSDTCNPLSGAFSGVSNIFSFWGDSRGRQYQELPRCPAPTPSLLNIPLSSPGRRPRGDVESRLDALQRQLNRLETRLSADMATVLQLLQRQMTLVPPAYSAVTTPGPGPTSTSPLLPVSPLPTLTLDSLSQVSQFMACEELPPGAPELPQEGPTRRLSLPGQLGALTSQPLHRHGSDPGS

Binder: VKFNKPFVFLMIEQNTK [SP16 peptide (C36 Core sequence, long; derived from human alpha-1-antitrypsin)]
- IC50 value (hERG FastPatch assay, test conc 0.008-25 uM): > 25 µM

Source: patent publication US20140378372A1 (SERPIN PHARMA, published 2014)
